Assay results taken from PMC8351538 (Molecular Biology of the Cell, 2021).
Read-outs that look alike come from different tables or passages of the source.

T1: Gyp6 (S. cerevisiae (endogenous, purified …, UniProt P32806 1-458))
T1 sequence: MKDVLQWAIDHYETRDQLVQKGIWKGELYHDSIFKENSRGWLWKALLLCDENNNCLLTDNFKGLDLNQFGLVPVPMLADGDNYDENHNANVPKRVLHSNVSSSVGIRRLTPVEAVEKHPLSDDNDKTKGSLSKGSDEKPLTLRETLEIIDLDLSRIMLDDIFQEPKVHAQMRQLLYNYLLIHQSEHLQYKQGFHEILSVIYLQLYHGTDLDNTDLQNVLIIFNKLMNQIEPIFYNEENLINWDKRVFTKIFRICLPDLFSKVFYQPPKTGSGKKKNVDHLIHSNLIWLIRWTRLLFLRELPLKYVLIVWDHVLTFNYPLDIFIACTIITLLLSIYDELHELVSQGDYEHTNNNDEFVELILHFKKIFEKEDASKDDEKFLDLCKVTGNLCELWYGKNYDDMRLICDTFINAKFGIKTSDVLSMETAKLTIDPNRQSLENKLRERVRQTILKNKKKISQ

T2: Gdi1 (S. cerevisiae, UniProt P39958 1-451)
T2 sequence: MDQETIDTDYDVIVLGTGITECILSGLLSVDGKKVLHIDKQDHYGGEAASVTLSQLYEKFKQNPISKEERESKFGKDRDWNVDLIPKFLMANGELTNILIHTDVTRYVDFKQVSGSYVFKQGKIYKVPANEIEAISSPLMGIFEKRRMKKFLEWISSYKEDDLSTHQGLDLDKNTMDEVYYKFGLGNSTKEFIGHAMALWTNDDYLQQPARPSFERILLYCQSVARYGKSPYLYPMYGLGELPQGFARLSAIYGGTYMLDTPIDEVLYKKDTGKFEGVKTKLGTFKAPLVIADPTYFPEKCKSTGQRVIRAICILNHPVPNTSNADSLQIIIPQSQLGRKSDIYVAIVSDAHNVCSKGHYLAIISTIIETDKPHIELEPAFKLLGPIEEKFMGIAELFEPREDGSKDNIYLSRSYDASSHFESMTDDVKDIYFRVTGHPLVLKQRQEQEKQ


Columns and labels:
Gyp6 [1] = molecular target: T1, Gyp6; assay: liposome flotation
Sec7 = Sec7 (S. cerevisiae (endogenous, purified …, UniProt P11075 1-2009)); assay: liposome flotation
Chain of Sec7 (S. cerevisiae (P11075 whole entry): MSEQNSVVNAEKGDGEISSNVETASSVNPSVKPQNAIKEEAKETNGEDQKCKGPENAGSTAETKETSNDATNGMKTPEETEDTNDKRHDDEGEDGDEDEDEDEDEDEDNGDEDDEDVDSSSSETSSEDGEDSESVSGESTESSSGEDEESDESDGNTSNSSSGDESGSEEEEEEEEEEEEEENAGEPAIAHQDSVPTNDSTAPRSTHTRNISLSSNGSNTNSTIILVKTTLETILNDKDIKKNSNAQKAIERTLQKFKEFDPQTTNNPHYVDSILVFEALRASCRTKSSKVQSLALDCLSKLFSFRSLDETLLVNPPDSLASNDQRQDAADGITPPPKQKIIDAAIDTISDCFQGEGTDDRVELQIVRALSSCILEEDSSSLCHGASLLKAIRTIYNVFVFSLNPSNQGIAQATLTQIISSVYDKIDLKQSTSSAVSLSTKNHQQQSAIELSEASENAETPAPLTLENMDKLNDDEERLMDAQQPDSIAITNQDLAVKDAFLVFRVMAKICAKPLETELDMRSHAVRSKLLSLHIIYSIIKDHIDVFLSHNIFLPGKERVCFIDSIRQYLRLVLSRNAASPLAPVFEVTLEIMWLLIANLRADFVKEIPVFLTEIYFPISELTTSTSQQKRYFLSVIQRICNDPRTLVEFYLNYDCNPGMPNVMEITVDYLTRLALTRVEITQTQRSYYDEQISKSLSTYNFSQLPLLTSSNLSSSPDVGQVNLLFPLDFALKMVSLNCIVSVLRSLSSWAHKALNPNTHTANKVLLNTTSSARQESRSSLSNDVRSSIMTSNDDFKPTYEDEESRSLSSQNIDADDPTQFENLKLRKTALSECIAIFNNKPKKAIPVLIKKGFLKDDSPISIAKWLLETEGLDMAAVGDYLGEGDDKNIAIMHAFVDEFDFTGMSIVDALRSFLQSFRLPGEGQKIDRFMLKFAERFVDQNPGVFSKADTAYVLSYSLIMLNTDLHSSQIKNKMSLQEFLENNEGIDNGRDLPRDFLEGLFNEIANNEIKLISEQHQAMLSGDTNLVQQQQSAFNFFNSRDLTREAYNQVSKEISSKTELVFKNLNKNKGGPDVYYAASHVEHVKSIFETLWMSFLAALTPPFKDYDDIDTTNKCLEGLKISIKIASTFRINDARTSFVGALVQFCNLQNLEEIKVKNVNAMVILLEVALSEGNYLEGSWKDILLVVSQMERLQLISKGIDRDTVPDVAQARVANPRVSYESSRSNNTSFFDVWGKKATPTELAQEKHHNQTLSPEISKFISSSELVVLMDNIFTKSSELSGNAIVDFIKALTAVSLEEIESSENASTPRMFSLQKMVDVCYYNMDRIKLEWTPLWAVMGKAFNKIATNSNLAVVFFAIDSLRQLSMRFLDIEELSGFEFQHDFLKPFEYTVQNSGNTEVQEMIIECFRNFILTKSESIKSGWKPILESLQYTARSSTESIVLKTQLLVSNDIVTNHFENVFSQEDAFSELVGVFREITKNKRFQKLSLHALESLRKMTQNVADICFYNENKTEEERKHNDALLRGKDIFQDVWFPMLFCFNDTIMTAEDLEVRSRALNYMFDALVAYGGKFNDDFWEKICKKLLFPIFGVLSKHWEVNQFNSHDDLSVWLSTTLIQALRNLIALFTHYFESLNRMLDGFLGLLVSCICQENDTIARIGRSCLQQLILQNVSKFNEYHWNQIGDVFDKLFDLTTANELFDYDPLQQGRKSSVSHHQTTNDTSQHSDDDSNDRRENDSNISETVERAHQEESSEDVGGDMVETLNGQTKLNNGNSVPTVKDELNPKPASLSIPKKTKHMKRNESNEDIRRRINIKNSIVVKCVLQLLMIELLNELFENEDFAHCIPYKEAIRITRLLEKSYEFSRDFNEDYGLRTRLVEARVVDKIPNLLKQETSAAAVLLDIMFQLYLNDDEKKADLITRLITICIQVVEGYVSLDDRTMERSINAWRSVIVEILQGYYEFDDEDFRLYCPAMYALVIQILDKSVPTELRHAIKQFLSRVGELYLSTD

Gdi1 = molecular target: T2, Gdi1; assay: SEC
Gyp6 [2] = molecular target: T1, Gyp6; assay: liposome flotation; remark: listed apart in the source

Binder | binding result (Gyp6 [1]) | binding result (Sec7) | binding result (Gdi1) | binding result (Gyp6 [2])
prenylated Ypt32 (natural protein, prenylated in vitro (geranylgeranyl pyrophosphate, GGTase)) MSNEDYGYDYDYLFKIVLIGDSGVGKSNLLSRFTTDEFNIESKSTIGVEFATRTIEVENKKIKAQIWDTAGQERYRAITSAYYRGAVGALIVYDISKSSSYENCNHWLTELRENADDNVAVGLIGNKSDLAHLRAVPTDEAKNFAMENQMLFTETSALNSDNVDKAFRELIVAIFQMVSKHQVDLSGSGTNNMGSNGAPKGPTISLTPAPKEDKKKKSSNCC | binds | binds | binds | 
myristoylated Arl1 (natural protein, N-myristoylated) MGNIFSSMFDKLWGSNKELRILILGLDGAGKTTILYRLQIGEVVTTKPTIGFNVETLSYKNLKLNVWDLGGQTSIRPYWRCYYADTAAVIFVVDSTDKDRMSTASKELHLMLQEEELQDAALLVFANKQDQPGALSASEVSKELNLVELKDRSWSIVASSAIKGEGITEGLDWLIDVIKEEQL |  |  |  | binds
prenylated Ypt1 (natural protein, prenylated in vitro (geranylgeranyl pyrophosphate, GGTase)) not shown |  |  | binds | 
prenylated Ypt6 (natural protein, prenylated in vitro (geranylgeranyl pyrophosphate, GGTase)) MSRSGKSLTKYKIVFLGEQGVGKTSLITRFMYDTFDDHYQATIGIDFLSKTMYLDDKTIRLQLWDTAGQERFRSLIPSYIRDSRVAIIVYDITKRKSFEYIDKWIEDVKNERGDENVILCIVGNKSDLSDERQISTEEGEKKAKLLGAKIFMETSTKAGYNVKALFKKIAKSLPEFQNSESTPLDSENANSANQNKPGVIDISTAEEQEQSACQC |  |  | binds | 
